# B1: isolated FERM domain of human SNX27 (domain or fragment, UniProt Q96L92 269-531, looked up)
# chain: YNGVSDVELRVALPDGTTVTVRVKKNSTTDQVYQAIAAKVGMDSTTVNYFALFEVISHSFVRKLAPNEFPHKLYIQNYTSAVPGTCLTIRKWLFTTEEEILLNDNDLAVTYFFHQAVDDVKKGYIKAEEKSYQLQKLYEQRKMVMYLNMLRTCEGYNEIIFPHCACDSRRKGHVITAISITHFKLHACTEEGQLENQVIAFEWDEMQRWDTDEEGMAFCFEYARGEKKPRWVKIFTPYFNYMHECFERVFCELKWRKENIFQM
# notes: FERM domain of human SNX27; The AlphaFold2 modelling took the FERM domain as residues 269 to 531; also called hSNX27_(FERM)
# B2: GST-mSNX1(1-139) (domain or fragment, mouse, UniProt Q9WV80 1-139, looked up)
# chain: MASGGGGCSASERLPPPFPGMDPESEGAAGASEPEAGDSDTEGEDIFTGAAAATKPQSPKKTTSLFPIKNGSKENGIHEDQDQEPQDLFADATVELSLDSTQNNQKTMPGKTLTSHSPQEATNSPKPQPSYEELEEEEQ
# notes: SNX1, mouse, residues 1 to 139; Vector pGEX4T-2, thrombin-cleavable GST; named GST-mSNX1(1-139) in the ITC; also called N-terminal extension of mouse SNX1; source: E. coli BL21 CodonPlus (DE3), purified (glutathione Sepharose, SEC); not shown: GST, N-terminal, kept
# B3: SNX1_(35-51) peptide (peptide)
# peptide: EAGDSDTEGEDIFTGAA
# notes: SNX1, human, residues 35 to 51; also called first aDLF motif of human SNX1; source: synthetic peptide (Genscript)
# B4: SNX1_(75-92) peptide (peptide)
# peptide: NGIHEEQDQEPQDLFADA
# notes: SNX1, human, residues 75 to 92; also called SNX1 75 to 92; hSNX1_(75-92); source: synthetic peptide (Genscript)
# B5: SNX2_(16-33) peptide (peptide)
# peptide: TDFEDLEDGEDLFTSTVS
# notes: SNX2, human, residues 16 to 33; also called SNX2 16 to 33; first aDLF motif of SNX2; source: synthetic peptide (Genscript)
# B6: SNX2_(62-82) peptide (peptide)
# peptide: TEVVLDDDREDLFAEATEEVS
# notes: SNX2, human, residues 62 to 82; also called SNX2 62 to 82; second aDLF motif of SNX2; source: synthetic peptide (Genscript)
# What was measured:
# Conditions in all cases: both partners purified
# [1] = target: T1, full-length mouse SNX1 with an N-terminal His-tag (mouse, UniProt Q9WV80 1-522); assay: ITC; 800 μM hSNX27 FERM titrated into 20 μM GST-mSNX1(1-139) or His-SNX1FL; 25 °C; 50 mM HEPES pH 7.5, 200 mM NaCl, 5% glycerol, 1 mM β-ME; single-site model
# T1 construct: SNX1, mouse, full length; Vector pMW172Kan; also called mSNX1FL; His-SNX1FL; source: E. coli BL21 CodonPlus (DE3), purified (TALON or Ni-NTA, SEC); not shown: His-tag, N-terminal, kept
# [2] = target: B1; assay: as above
# full-length mouse SNX27 = target: T2, full-length mouse SNX27 (mouse, UniProt Q3UHD6 1-539); assay: ITC; 800 μM SNX1 or SNX2 peptide titrated into 20 μM full-length mouse SNX27; 25 °C; 50 mM HEPES pH 7.5, 200 mM NaCl, 5% glycerol, 1 mM β-ME with 1:10 peptide buffer (100 mM Tris-HCl pH 10.6); single-site model
# T2 construct: SNX27, mouse, full length; Vector pMCSG7, ligation independent cloning; also called mSNX27FL
# human SNX27(K496D) = target: T3, human SNX27(K496D) (human, UniProt Q96L92 1-541, K496D); assay: ITC; 600 μM SNX1(75-92) peptide titrated into 20 μM hSNX27 wild type or single-site mutant; 25 °C; 50 mM HEPES pH 7.5, 200 mM NaCl, 5% glycerol, 1 mM β-ME; single-site model
# T3 construct: SNX27, human, full length; the text prints R496D, the methods and the legend K496D; also called hSNX27 K496D; SNX27(R496D)
# [3] = target: T4, human SNX27 full length, wild type (human, UniProt Q96L92 1-541); assay: as above
# T4 construct: SNX27, human, full length; also called hSNX27FL; hSNX27 WT
Binder,Kd (full-length mouse SNX27),other results
B1,,Kd [1]: 41 µM
B2,,Kd [2]: 39.1 µM
B3,33.4 µM,
B4,13.3 µM,Kd (human SNX27(K496D)): 56.4 µM; Kd [3]: 12.7 µM
B5,37.8 µM,
B6,22.6 µM,
